A protein production outcome set (Wang et al. 2014)

Assay: label from the status in PepcDB records
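Note: failed if final PepcDB status was selected cloned or expressed and not failed if soluble or beyond.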

Sequence	protein production
MKRFQKQILLRRILQMDYKQIAKEVIEALGGRENVNSVAHCATRLRVMVKDENKINKEKAENIEKVQGAFFNSGQYQMIFGTGTVNKIYDEVVAQGLPTASKDEQKAEAAKQGNWFQRAIRSFGDVFVPLLPAIVATGLFMGIRGAINNDTVLALFGTTSKAFAATDFYTYTVVLTDTAFAFFPALICWSAFNVFGGSPLLGLVLGLMMVNNALPNAWDVVSGAAKPIYFFDFIPVVGYQNSVLPAFFVGLIGAKFEQWVRKWVPDVLDLLLRPLVVFAVMSALALFIIGPVFHTVESYVLAGTEWILALPFGLAGLVLGGIHQIIVVTGVHHVFNLLEANLISNTGKDPLNAIITAAMTAQAGATLAVGVKTKDSKLKALAFPASLSAVLGITEPAIFGVNLRFGKPFIMGLIAGAAGGWLASILNLAGTGFGVTIVPGTLLYLNGQVLKYVIMVLVTLALGFALTWIFGYKEEEVEAQTEVVAEDIASAGSAPVALQAETIAAPLKGEVVALENVNDPVFSSGAMGKGAAIKPSGNRVVAPFDGEVQIAFPTGHAYGLKSDKGAEVLIHIGIDTVSLDGKGFDAKVQANQRVKKGDVLATFDSSVITEAGLDDTTMVIVTNTADYEDVSLVATGSVAEGGDFIAVK	failed
MKRIILLAFLCTTTLVMAQRINHVQEAIANYDYEAALTLIAKEKPTIPLLLQKGKAQRGLGMNTEALSTYQEIIANDTANTRAYIEAAECCRSLAKYQQALKYYEQALDLNPENKYVRIQYIGLLLSLQKFQDALGESSLMTEKDSSAIALHLQAQSFEGMGELLPATGCYYNIQEKYPDDYLAAAKLAALNIAGSYFNEAIEATEKYRQTDTTNIAVNRQNALAYCLNKDYPTAIQRYEYLVSQGDSSFHTCYYLGISYYAEEKYYEAHDFLEAARKHDPENVNLLYYLGRACAKTSWKKLGVEYLEKALDLTIPKDSNMVRLYIGMTDCYKMAQMPKEQIESIRERYRKYDKQNHKLLYDMAFIYFYSLKDKKNTERCLEAFLKTRPKEDKEEEAKLNERGELVLGTKNYYNAAANWLKDIQSKQKIEDFFLGGNVPAQKPE	failed
MKRKLVTSALPYVNNFPHLGNLIQVLSADVFARFCRLKEYETLYICGTDEYGTATETKALEEKKSPEELCSFYHAIHAEIYNWFNIAFDYFGRTSTPQQTEITQGIFNDLDKNGYITEHTIEQLYCPSCKRFLADRYVLGTCPSCSYDGARGDQCEHCGKLLDPTDLKEPRCSSCGAAPEVRSTTHLYINLPKIVPEYEKWMPKTAEEGRWSNNALQMSKSWLRDGLQERAITRDLKWGIPVPKKGFEDKVFYVWFDAPIGYISITKCWADLAGKDWKAWWLDQNDVELFQFIGKDNIPFHTVIFPCSLIGSGKNWTKLFHMSGTEYLNYENGKFSKSKGVGVFGNDAKESGIPADMWRFYIFYNRPEKNDTQFTWKDFQERVNSELIGNLCNLVNRTATFIHRYYDGKIPQVDGAKSGREDIKSMVKSLREAASASFKKITELSDWAELRDSFHEAFALSSVANKAFQDGEPWKRRETDPEYAEALMSELCYLIKDILILIHPYMPQYADQAAGFFGQKIWSGNIFDGKAPQFNKPEGSFLSWKNLGEREGLKTVENPVIIFKTLDNKVIDAYRERYSGSQKDRKKSEKGCSACKDSGSSKSDAAASSAKPEVKLSPAELFSKKIALKTAKIISVERHPDADKLYIEKLDDGSGEERTILSGLVPFLKEDEILGKTVIIADNLKPRKMRGIESKGMLLAASWYDEEEKEHVELLQAPWAAPGTPVILEGDADISDPEAVKAFYAQKPAAIDADTFFAAPILIEDYIPKIEGKKLLVAGKEMKLEKVKTGEAG	failed
MKRKQESKGAGEKRQGAGGRGQGEKKQGKQGRQGRQGRQGEKSPVPSPQSPIPNPQFTTPNPDEWLQIGKIVSAQGLSGEVRVYPDSDFPERFEVPGTRWLLRPGQTEPQPIELLHGRYLENKNLYVLQLAGVENRSQSEELRGCMLFVPASDRPELGEDEYHVVDLIGMEVFLQASGDLVGAVVDVIPAGNDLLEVSLHEPVTSDKKPKTVLIPFVKAIAPVVDLQTRRIEITPPPGLLELGSGV	failed
MKRLLERSHALLTAPVGATPRVLALVAALLVVPTYVAPLWNLTMFAPQYGDGLRLDIYSYKLEGGNHGQDLKEINLLNHYIGMHDLAEEDFREFKWMPFVMGGLALVFLRAAVMGRVLDLLDSLVVFTWFGLFSLWSFGYKLYSYGHDLAPGAPVKVPPFMPPMIGSAQLANFEVYSYPGLGSYALFAVGLALAVALALGVRATLRRSAAAPLPRGGP	failed
MKRLMFIGPSQCGKTSLTQSLRGEALHYKKTQAIEWSPMAIDTPGEYLENRCLYSALLTSACEADVIALVLNADAQWSPFSPGFTAPMNRPTIGLVTKADLAEPQRISLVAEWLTQAGAQQIFITSALNNSGLDAVLDFLNSKEPLCLTKLEHHHHHH	not failed
MKRLSITVRLTLLFILLLSVAGAGIVWTLYNGLASELKWRDDTTLINRTAQIKQLLIDGVNPDTLPVYFNRMMDVSQDILIIHGDSINKIVNRTNVSDGMLNNIPASETISAAGIYRSIINDTEIDALRINIDEVSPSLTVTVAKLASARHNMLEQYKINSIIICIVAIVLCSVLSPLLIRTGLREIKKLSGVTEALNYNDSREPVEVSALPRELKPLGQALNKMHHALVKDFERLSQFADDLAHELRTPINALLGQNQVTLSQTRSIAEYQKTIAGNIEELENISRLTENILFLARADKNNVLVKLDSLSLNKEVENLLDYLEYLSDEKEICFKVECNQQIFADKILLQRMLSNLIVNAIRYSPEKSRIHITSFLDTNSYLNIDIASPGTKINEPEKLFRRFWRGDNSRHSVGQGLGLSLVKAIAELHGGSATYHYLNKHNVFRITLPQRN	failed
MKRLSLLAATAAFLLASPALAESPFWPVQPKNGPVAAELRGAWKSRGYGWIVQFGPDGPQLFHTAGGACYPDPRREPDPDGVLALWRAEGPGVISLTGDPVGTRYQFDRLPNLPTDCISAGGWTPDRIVAFAADTFAELYPRSAERKLDWPARKAKALTQVGPNATDDQLWLAMAGLLSGLDDPHVELHGMVQGARRDLEPGESPTLMRVRAADPSGDERGWLQAYREGILTGLLQGKGRQAANNRIFWGRVDDVGYLNVLTMGAFARNAAPDDPRPLDAVLDEALSAFVGAKAVVVDVSNNRGGYDIISRRIAARFTAQPRVAYAKVPVGAKAPPQVIKVEPSGAVGFTGPVYVVTSDITVSAGETFTLMMKALPNVTLVGGTTRGAFSDQLPKPLPNGWTLALPAELYRTADGRDLEGRGLAPTVPMAVFPDSDLMGGHAKALSSLFATIREGAAAGATR	failed
MKRLTPYSWLILIIFSSCLTGNKVASTDKQIESLLSQMTLEEKIGMLHSNTMFSSTGVPRLGIPDLHYSDGPHGVRFEGVANGWESARWDNDACSYLPALSALASTWNRDLAQLYGEVLGAECKARGKHVSLAPGVNIHRSLLNGRNWEYFSEDPFFSGELAVPYIQGVQSQGVASCVKHFALNSQAYNQYKVSVEVDERTLHEIYLPAFEAAIQRGGAMAAMAAYNKVRGLWCTESPYLLDTLLRDELGFDGLVVSDWNAVHNTERTALCGMDVEMGTSIKENGKYAFNKYYLADPLLKKVRNGEIPEEAVNKKVRNILKLMIRLDLIGQAPYDTTGMAAKLAIPAHTKAAREIAEESLVLLKNSKDMLPLDPAQYKNVAVIGANATEVFAAGGGSTKLKAKYEVTPLEGLQNLLDGKARIEYAPGYQLSKKAYKVGHWFTNEFDKSDEELYKKAINTAAQAELVIYIGGTSHEHGSDCEGYDKPNLKLPYQQDRLLKGILEVNPNTVVVLISGGPVEIGEWYNDATALLHGSFLGMEGGNALARTLFGEVNPSGKLTTTWCKRLEDMPDHVFGEYPGINDTVRFKEGLMVGYRYFDTYRVVPLFEFGYGLSYTTFTYSNIKMKPVWKDSDTEFAVSFTVTNTGKRYGQEIAQLYLHQNKCSVERPFKELKGFTKVGLKPGESKQVTIKLPRRALQYYDTESKRWKDEPGMFTVLIGASSRDIKLQKDFELKK	failed
MKRMLAWLYAPLVFAGFIGAGVWWMSAGPASASGLLGVFGAALGVSFLAEWCLPYEPGWNRSQGDRLRDSLHALVNESLNALGLLALPGLVALLAHDGLWPQGWPLWGQLLLAIVIADCGITLAHYASHRLAWLWRLHAVHHSVQRMYGFNGLLKHPLHQLIEASAGLLPLVLLGIPLPVAQLLALAIAVQLLLQHSNVDMRLGPLRWIFAWAPVHRFHHMKYGRAGDVNFGLFFNLWDWLLGTAFYRDDYCMRQGDLGIGSRADYPVDYWPQLLEPFKAQRYGAEPVVPEQLRRRVRPASEA	failed
MKRNSSIDLMKSCAIFFVISVHFLLNSGFYDMTIHSTLAIFWIGIRTILITCVPLFLVATGFLMNRKELSAQYVLGIVPVIISYIGISLLVWGVLSLVGKGSDFSTAINGIFDYSTDSYSWYVEMYLGLYLFIPLLNIIWNYKKEIKNYHLYIVFIASLLTFLPSLLNSFGKVIPDYWQICYPVSYYFIGAYLYTYQNEIKKISIGKLVTAFLSALTIFTLTDTFASWNQEFQWLDHNDYFGYQTAIMTVLVIAILWRTPIPKWSVRLLKALSTATLTIYLISDLTDQFVYGFFKHEIPNLSQRVIAGPIIIPVAFTSAALLGIFVGKVLNIPFKRKKERKEN	failed
MKRRRRNSKLKFEETSDQSPTSTAEFSFSLTKIAVSQICQSIGYKATDASALNTLTLTTTKFLQSLAELASSFSNTANRTEVNLFDIVNGLQDIALSTSDCFPGGSTVHDIESQCLIKSAVLRNLSDFVTYAPEIPFAKPLPRRERDGSFGGDLDHVAVTRSVDVTSVPAWLPPFPDSSLCSDRCSKDNRSDHLWENSDSVIRREILPESLKSKSGGRLPVMRDKVRFKMEQRDWSSGGDTRLERSRDNNNGESGRDLEVKKKIREGYTYCAGEWPF	failed
MKRSDKYTDDYIEQRYESQRPHYNTYYQPIGKPPKKKKSKRIFLKAIITILILLIIFFGVMYFISSRANVDDLKSIENKSDFVATENMPNYVKGAFISMEDERFYKHHGFDIKGTTRALFSTISDRDVQGGSTITQQVVKNYYYDNERSFTRKIKELFVARKVEKQYSKNQILSFYMNNIYYGDNQYTVEGAANHYFGVTVDKNNSNMSQISVLQSAILASKVNAPSVYDVNDMSNNYINRVKTNLEKMKQQNFISESQYQEAMSQLGN	not failed
MKRSTRFQQRSLFAIGGLGLLIGVAFVLVQFRATLIFTVFLYYASRPIYRKLESVSTPSYFSEYSLPYRRQILAVTTISVFLLPFLLLFTYTLALVVPAVQQFIGQNDLASGYLSAIQSADSGGLPEPIAGLQISDLLDMSPEEIVTILNAPSVRTWIEQTLGTLISSIGVFADVGIQAFLLLSGTYYLLTDGPRLSRWLFDHFDESGVVESYAIAVDDELSSILFGNILNALVTGIIGIVVFSAYNSISPAAVQVPFAPLVGALTGAGSLIPVVGMKIVYFPVGAILTVGAVASGQATAIGYVLLFLILAFVVVDTIPDFLIRPYVSGNRTHVGLLMFAYILGPIVFGAYGIFLGPILLVLVAQFFRTVAPYVATGEPPDQSKLYEY	failed
MKRTKKAFVLVLSLSMLASISPQTVLASGGNTDRYEEVHGTQAIVKDAEVHVYTTKNGGTVQLTGSNGIETTFTQGIGYREYKATPADGWRWKGWTYEQLYQGEDLGNRTDYGWGRRYSFSNDGSDWKSPYDGIGQTISVNRLLTTGETVGNKITYNLYADFNPTINATADTGGTIEDSGITEVEYGTNKQYTVTADTGKDIASVTVDGNSVLAETKKDSFTYTFENVTEPHTIHATFTDEIHTVSYEFVSGTAGEALPEEVSNLCPSSSTYTYGTEVTPTQPTSTSVKVSDGVWTFKGYDKENQTVTSDVKFTGTWTFAKNAVTINHIPTITAGDKTITVGDSFDPKKDVTASDKEDGSLTDRIEVINNTVNTSKVGTYTVTYKVTDKDGASVTKSITVTVKEKDKEEQTTVPTKPDNGNSTSTDTKKDASKTGQTVKTGDTSNVLLWSTIAILSLAGVVTVLFIKRRKSHS	failed
